The supplement of paper PMC11246515
± gives the standard deviation of the averaged measurements.

Experiment: total protein half-life in vivo (active degradation + dilution); higher = more stable protein
[1] = E. coli NCM3722 delta-clpP delta-lon delta-hslV, growth: N-lim chemostat, doubling time 6 h
[2] = E. coli NCM3722 delta-clpP, growth: N-lim chemostat, doubling time 6 h
[3] = E. coli NCM3722 delta-hslV, growth: N-lim chemostat, doubling time 6 h
[4] = E. coli NCM3722 delta-lon, growth: N-lim chemostat, doubling time 6 h
[5] = E. coli NCM3722 delta-smpB, growth: N-lim chemostat, doubling time 6 h
[6] = wild type E. coli NCM3722, growth: C-lim chemostat, doubling time 3 h
[7] = wild type E. coli NCM3722, growth: C-lim chemostat, doubling time 6 h
[8] = wild type E. coli NCM3722, growth: C-lim chemostat, doubling time 12 h
[9] = wild type E. coli NCM3722, growth: N-lim chemostat, doubling time 6 h
[10] = wild type E. coli NCM3722, growth: N-lim chemostat, doubling time 12 h
[11] = wild type E. coli NCM3722, growth: P-lim chemostat, doubling time 6 h
[12] = wild type E. coli NCM3722, growth: P-lim chemostat, doubling time 12 h

| Sequence | total protein half-life in vivo [1] [h] | total protein half-life in vivo [2] [h] | total protein half-life in vivo [3] [h] | total protein half-life in vivo [4] [h] | total protein half-life in vivo [5] [h] | total protein half-life in vivo [6] [h] | total protein half-life in vivo [7] [h] | total protein half-life in vivo [8] [h] | total protein half-life in vivo [9] [h] | total protein half-life in vivo [10] [h] | total protein half-life in vivo [11] [h] | total protein half-life in vivo [12] [h] |
| --- | --- | --- | --- | --- | --- | --- | --- | --- | --- | --- | --- | --- |
| MRNPTLLQCFHWYYPEGGKLWPELAERADGFNDIGINMVWLPPAYKGASGGYSVGYDSYDLFDLGEFDQKGSIPTKYGDKAQLLAAIDALKRNDIAVLLDVVVNHKMGADEKEAIRVQRVNADDRTQIDEEIIECEGWTRYTFPARAGQYSQFIWDFKCFSGIDHIENPDEDGIFKIVNDYTGEGWNDQVDDELGNFDYLMGENIDFRNHAVTEEIKYWARWVMEQTQCDGFRLDAVKHIPAWFYKEWIEHVQEVAPKPLFIVAEYWSHEVDKLQTYIDQVEGKTMLFDAPLQMKFHEASRMGRDYDMTQIFTGTLVEADPFHAVTLVANHDTQPLQALEAPVEPWFKPLAYALILLRENGVPSVFYPDLYGAHYEDVGGDGQTYPIDMPIIEQLDELILARQRFAHGVQTLFFDHPNCIAFSRSGTDEFPGCVVVMSNGDDGEKTIHLGENYGNKTWRDFLGNRQERVVTDENGEATFFCNGGSVSVWVIEEVI | 5.23 ± 0.094 | 4.16 ± 0.08 | 4.036 ± 0.019 | 4.4 ± 0.36 | 4.26 ± 0.12 | 3.21 ± 0.87 | 6.29 ± 0.87 | 12.4 ± 0.27 | 4.2 ± 0.082 | 6.75 ± 0.24 | 5.54 ± 0.59 | 13.4 ± 0.48 |
| MTTLTAQQIACVYAWLAQLFSRELDDEQLTQIASAQMAEWFSLLKSEPPLTAAVNELENRIATLTVRDDARLELAADFCGLFLMTDKQAALPYASAYKQDEQEIKRLLVEAGMETSGNFNEPADHLAIYLELLSHLHFSLGEGTVPARRIDSLRQKTLTALWQWLPEFVARCRQYDSFGFYAALSQLLLVLVECDHQNR | 5.85 |  |  |  |  |  | 4.24 |  |  |  |  | 9.47 ± 1.7 |
| MATIHVDGKEYEVNGADNLLEACLSLGLDIPYFCWHPALGSVGACRQCAVKQYQNAEDTRGRLVMSCMTPASDGTFISIDDEEAKQFRESVVEWLMTNHPHDCPVCEEGGNCHLQDMTVMTGHSFRRYRFTKRTHRNQDLGPFISHEMNRCIACYRCVRYYKDYADGTDLGVYGAHDNVYFGRPEDGTLESEFSGNLVEICPTGVFTDKTHSERYNRKWDMQFAPSICQQCSIGCNISPGERYGELRRIENRYNGTVNHYFLCDRGRFGYGYVNLKDRPRQPVQRRGDDFITLNAEQAMQGAADILRQSKKVIGIGSPRASVESNFALRELVGEENFYTGIAHGEQERLQLALKVLREGGIYTPALREIESYDAVLVLGEDVTQTGARVALAVRQAVKGKAREMAAAQKVADWQIAAILNIGQRAKHPLFVTNVDDTRLDDIAAWTYRAPVEDQARLGFAIAHALDNSAPAVDGIEPELQSKIDVIVQALAGAKKPLIISGTNAGSLEVIQAAANVAKALKGRGADVGITMIARSVNSMGLGIMGGGSLEEALTELETGRADAVVVLENDLHRHASAIRVNAALAKAPLVMVVDHQRTAIMENAHLVLSAASFAESDGTVINNEGRAQRFFQVYDPAYYDSKTVMLESWRWLHSLHSTLLSREVDWTQLDHVIDAVVAKIPELAGIKDAAPDATFRIRGQKLAREPHRYSGRTAMRANISVHEPRQPQDIDTMFTFSMEGNNQPTAHRSQVPFAWAPGWNSPQAWNKFQDEVGGKLRFGDPGVRLFETSENGLDYFTSVPARFQPQDGKWRIAPYYHLFGSDELSQRAPVFQSRMPQPYIKLNPADAAKLGVNAGTRVSFSYDGNTVTLPVEIAEGLTAGQVGLPMGMSGIAPVLAGAHLEDLKEAQQ | 6.02 ± 0.15 | 5.98 ± 0.38 | 6.1 ± 0.34 | 5.92 ± 0.37 | 5.61 ± 0.29 | 3.14 ± 0.12 | 5.723 ± 0.011 | 10.3 ± 0.23 | 5.63 ± 0.15 | 11 ± 0.17 | 5.72 ± 0.076 | 10.25 ± 0.082 |
| MKFSELWLREWVNPAIDSDALANQITMAGLEVDGVEPVAGSFHGVVVGEVVECAQHPNADKLRVTKVNVGGDRLLDIVCGAPNCRQGLRVAVATIGAVLPGDFKIKAAKLRGEPSEGMLCSFSELGISDDHSGIIELPADAPIGTDIREYLKLDDNTIEISVTPNRADCLGIIGVARDVAVLNQLPLVQPEIVPVGATIDDTLPITVEAPEACPRYLGRVVKGINVKAPTPLWMKEKLRRCGIRSIDAVVDVTNYVLLELGQPMHAFDKDRIEGGIVVRMAKEGETLVLLDGTEAKLNADTLVIADHNKALAMGGIFGGEHSGVNDETQNVLLECAFFSPLSITGRARRHGLHTDASHRYERGVDPALQHKAMERATRLLIDICGGEAGPVIDITNEATLPKRATITLRRSKLDRLIGHHIADEQVTDILRRLGCEVTEGKDEWQAVAPSWRFDMEIEEDLVEEVARVYGYNNIPDEPVQASLIMGTHREADLSLKRVKTLLNDKGYQEVITYSFVDPKVQQMIHPGVEALLLPSPISVEMSAMRLSLWTGLLATVVYNQNRQQNRVRIFESGLRFVPDTQAPLGIRQDLMLAGVICGNRYEEHWNLAKETVDFYDLKGDLESVLDLTGKLNEVEFRAEANPALHPGQSAAIYLKGERIGFVGVVHPELERKLDLNGRTLVFELEWNKLADRVVPQAREISRFPANRRDIAVVVAENVPAADILSECKKVGVNQVVGVNLFDVYRGKGVAEGYKSLAISLILQDTSRTLEEEEIAATVAKCVEALKERFQASLRD | 6.244 ± 0.025 | 5.88 ± 0.61 | 5.77 ± 0.16 | 5.98 ± 0.44 | 5.33 ± 0.063 | 3.37 ± 0.066 | 6.34 ± 0.37 | 12.5 ± 0.56 | 5.41 ± 0.088 | 10.4 ± 0.24 | 6.01 ± 0.4 | 12 ± 0.58 |
| MTRTNLITGFLGSGKTTSILHLLAHKDPNEKWAVLVNEFGEVGIDGALLADSGALLKEIPGGCMCCVNGLPMQVGLNTLLRQGKPDRLLIEPTGLGHPKQILDLLTAPVYEPWIDLRATLCILDPRLLLDEKSASNENFRDQLAAADIIVANKSDRTTPESEQALQRWWQQNGGDRQLIHSEHGKVDGHLLDLPRRNLAELPASAAHSHQHVVKKGLAALSLPEHQRWRRSLNSGQGYQACGWIFDADTVFDTIGILEWARLAPVERVKGVLRIPEGLVRINRQGDDLHIETQNVAPPDSRIELISSSEADWNALQSALLKLRLATTA | 4.59 ± 0.6 | 4.12 ± 0.58 | 3.4 ± 0.12 | 3.83 ± 0.31 | 3.47 ± 0.083 | 2.66 ± 0.31 | 5.66 ± 0.057 | 9.04 ± 0.88 | 3.47 ± 0.12 | 5.62 ± 0.064 | 5.197 ± 0.035 | 9.17 ± 0.28 |
| MSAIEVKNLVKKFHGQTVLHGIDLEVKPGEVVAIIGPSGSGKTTLLRSINLLEQPEAGTITVGDITIDTARSLSQQKSLIRQLRQHVGFVFQNFNLFPHRTVLENIIEGPVIVKGEPKEEATARARELLAKVGLAGKETSYPRRLSGGQQQRVAIARALAMRPEVILFDEPTSALDPELVGEVLNTIRQLAQEKRTMVIVTHEMSFARDVADRAIFMDQGRIVEQGAAKALFADPEQPRTRQFLEKFLLQ |  | 5.314 ± 0.015 | 5.44 ± 0.48 | 6.65 ± 1.8 | 5.38 ± 0.14 | 3.11 ± 0.18 | 5.25 ± 0.71 | 10.2 ± 1.1 | 6.41 ± 1.5 | 9.13 ± 1.8 | 5.16 ± 0.33 | 12.2 ± 1.3 |
